From patent US20170096478A1, “THERAPEUTIC AGENT FOR INFLAMMATORY DISEASE” (Josai University Corporation, priority 2012, published 2017)

Experiments:
[1] = test system: histone H1; assay: ELISA affinity for histone H1; type: binding; conditions: absorbance at 405 nm; 5 μg/mL antibody; compared among histones
Protocol: (§1) The Affinities between histone H1 or core histone and SSVmAb were determined by ELISA.
(§2) A 96 well microplate was coated with histone H1, H2A, H2B, H3 or H4. Each histone used was dissolved in 100 mM sodium carbonate buffer (pH 9.3). The plate was washed with PBS-tween 20 (0.05%), and blocked with 3% skim milk and 1% BSA for 1 hour. To each well, 5 μg/mL SSVmAb was added, and incubated for 1 hour. Bound SSVmAb was detected using peroxidase (HRP) conjugated anti mouse IgG1 Ab (SIGMA), and incubated for 1 hour. Bound SSVmAb was detected using the ABTS [2,2′-azino-bis(3-ethylbenzothiazoline-sulfonic acid)] substrate solution, and absorbance at 405 nm was measured using Multiskan Ascent (Thermo Fisher Scientific Inc., Waltham, Mass.).
After the end of the tests, binding assays of SSV mAb with histone H1, histone H3 and histone H4 were carried out by ELISA in the same manner as Test Example 2.

[2] = test system: histone H2A; assay: ELISA affinity for histone H2A; type: binding; conditions: absorbance at 405 nm; 5 μg/mL antibody; compared with histone H1
Protocol: as §1, §2

[3] = test system: lipopolysaccharide (LPS)-induced lethal sepsis; assay: Test Example 7: survival in LPS-induced lethal sepsis; type: in vivo, BALB/c mice
Protocol: BALB/c mice (bodyweight of 20 g to 30 g when starting the experiments, n=6) were raised in a plastic cage under SPF and thermo-hydrostat (22±1° C., 55±5%) conditions under 12-hour light-dark cycle. Foods and water were supplied ad libitum. Lipopolysaccharide (LPS)-induced lethal sepsis which is generally employed as an experimental sepsis model was induced by intraperitoneally administering LPS at a dose of 40 mg/kg. SSV mAb dissolved in physiological saline was intraperitoneally administered totally 3 times, i.e., at 30 minutes before, 6 hours after and 12 hours after the intraperitoneal administration of LPS, in an amount of 100 μg/dose in terms of the amount of SSV mAb. The survival of the animals thereafter was tested. To the control group, IgG (SIGMA) dissolved in physiological saline was administered in place of SSV mAb in the same manner.

[4] = test system: renal ischemia reperfusion injury; assay: Test Example 9: acute renal failure due to renal ischemia reperfusion injury, check test 1; type: in vivo, male Wistar rat; conditions: autopsy after the end of the test; vs control group
Protocol: Right kidney was removed from male Wistar rat (n=4) under general anesthesia, and then left kidney of the rat was subjected to ischemia reperfusion with vascular clip to prepare a model. For SSV mAb-administered group, SSV mAb was then administered in an amount of 10 mg/kg 30 minutes before preparing the model and immediately after the reperfusion For control group, IgG (SIGMA) was administered in place of SSV mAb in the same manner. Then, urea nitrogen (BUN) and creatinine (Cr) in serum at 24 hours after preparing the model were measured and the nephropathy level was evaluated. Further, the rats were subjected to autopsy after the end of the test, and histological evaluation was performed.

[5] = test system: renal ischemia reperfusion injury; assay: Test Example 10: acute renal failure due to renal ischemia reperfusion injury, check test 2; type: in vivo, male Wistar rats; conditions: autopsy after the end of the test; vs control group
Protocol: Right kidney was removed from male Wistar rat (n=4) under general anesthesia, and then left kidney of the rat was subjected to ischemia reperfusion with vascular clip to prepare a model. For SSV mAb-administered group, SSV mAb was then administered in an amount of 10 mg/kg 30 minutes before preparing the model and immediately after the reperfusion Test was carried out in the same manner as Test Example 10 except that male Wistar rats (n=4-6) were used and except that, for SSV mAb-administered group, SSV mAb was administered in an amount of 10 mg/kg 30 minutes before preparing the model and 6 hours after the reperfusion. For control, IgG (SIGMA) was administered in place of SSV mAb in the same manner. Then, the concentrations of urea nitrogen (BUN) and creatinine (Cr) in serum at 24 hours after preparing the model were measured and the nephropathy level was evaluated. Further, the rats were subjected to autopsy after the end of the test, and histological evaluation was performed.

B1: SSV mAb: monoclonal antibody (IgG1) produced by Mouse-Mouse hybridoma SSV-C 93-3 (NITE BP-972), raised against peptide … (SEQ ID NO:1)-KLH conjugate (antibody, V domains shown)
VH: EIQLQQSGAELVKPGASVKISCKASGYSFTGYNMNWVKQSHGKSLEWIGNINPYYGSTSYNQKFKGKATLTVDKSSSTAYMQLNSLTSEDSAVYYCARSPYYSNYWRYFDYWGQGTTLTVSS
VL: QIVLSQSPAILSASPGEKVTMTCRASSSVSYMHWYQQKPGSSPKPWIYATSNLASGVPARFSGSGSGTSYSLTISRVEAEDAATYYCQQWSSNPWTFGGGTKLEIK
- affinity for histone H1 (ELISA) [1]: binding capacity
- affinity for histone H2A (ELISA) [2]: higher than the affinity for histone H1
- cumulative survival rate ([3]; 70 hours after administration of LPS): 0.7
- survival rate ([3]; 70 hours after administration of LPS 40 mg/kg i.p., 100 μg/dose i.p. 3 times): 70%
- survival rate relative to that of the control group ([3]; 70 hours after administration of LPS, p<0.05): about 3.5 times
- histological evaluation of kidney [4]: better than that of the control group
- histological evaluation of kidney [5]: better than that of the control group
